From patent publication US12116424 (WISCONSIN ALUMNI RESEARCH FOUNDATION, dated 2024) come the findings set out here.

Bridges are numbered along the chain shown (N, C = ends). Where no end group is shown, it is not given here. [ ]: non-standard residue; d: D form.

First the molecules themselves.
B1: 7-mer A2K (peptide)
peptide: KKCFMFV
modifications: bridge 3-C; also: thiolactone: Cys3 side chain to C-terminal carboxyl
B2: 7-mer M5dM (peptide)
peptide: KACF[dM]FV
modifications: bridge 3-C; also: thiolactone: Cys3 side chain to C-terminal carboxyl
B3: 7-mer C3dC/M5dM (peptide)
peptide: KA[dC]F[dM]FV
modifications: bridge 3-C; also: thiolactone: dCys3 side chain to C-terminal carboxyl
B4: 7-mer C3dC (peptide)
peptide: KA[dC]FMFV
modifications: bridge 3-C; also: thiolactone: dCys3 side chain to C-terminal carboxyl
B5: Sa AIP-I (peptide)
peptide: YSTCDFIM
modifications: not fully specified; thiolactone ring Cys4-Met8 (Cys side chain to C-terminal carboxyl)
B6: Se AIP-II (peptide)
peptide: NASKYNPCSNYL
modifications: not fully specified; thiolactone ring Cys8-Leu12 (Cys side chain to C-terminal carboxyl)
B7: Se AIP-III (peptide)
peptide: NAAKYNPCASYL
modifications: bridge 8-C
B8: Se AIP-I (peptide)
peptide: DSVCASYF
modifications: not fully specified; thiolactone ring Cys4-Phe8 (Cys side chain to C-terminal carboxyl)
B9: Sa AIP-IV (peptide)
peptide: YSTCYFIM
modifications: not fully specified; thiolactone ring Cys4-Met8 (Cys side chain to C-terminal carboxyl)
B10: Sa AIP-II (peptide)
peptide: GVNACSSLF
modifications: not fully specified; thiolactone ring Cys5-Phe9 (Cys side chain to C-terminal carboxyl)
B11: Se AIP-I D1AV3AS6A (peptide)
peptide: ASACAAYF
modifications: not fully specified; thiolactone ring Cys4-Phe8 (Cys side chain to C-terminal carboxyl)
B12: Sa AIP-III D4A (peptide)
peptide: INCAFLL
modifications: bridge 3-C; also: thiolactone: Cys3 side chain to C-terminal carboxyl
B13: Sa AIP-III (peptide)
peptide: INCDFLL
modifications: bridge 3-C; also: thiolactone: Cys3 side chain to C-terminal carboxyl
B14: Se AIP-I D1AS6A (peptide)
peptide: ASVCAAYF
modifications: not fully specified; thiolactone ring Cys4-Phe8 (Cys side chain to C-terminal carboxyl)
B15: 7-mer, K-A-(C-F-M-F-V) (peptide)
peptide: KACFMFV
modifications: bridge 3-C; also: thiolactone: Cys3 side chain to C-terminal carboxyl
B16: 14-mer (peptide)
peptide: VADSSMSKACFMFV
modifications: not fully specified; thiolactone ring Cys10-Val14 (Cys side chain to C-terminal carboxyl)
B17: 13-mer (peptide)
peptide: ADSSMSKACFMFV
modifications: not fully specified; thiolactone ring Cys9-Val13 (Cys side chain to C-terminal carboxyl)
B18: 9-mer (peptide)
peptide: MSKACFMFV
modifications: not fully specified; thiolactone ring Cys5-Val9 (Cys side chain to C-terminal carboxyl)
B19: 12-mer (peptide)
peptide: DSSMSKACFMFV
modifications: not fully specified; thiolactone ring Cys8-Val12 (Cys side chain to C-terminal carboxyl)
B20: 10-mer (peptide)
peptide: SMSKACFMFV
modifications: not fully specified; thiolactone ring Cys6-Val10 (Cys side chain to C-terminal carboxyl)
B21: 8-mer (peptide)
peptide: SKACFMFV
modifications: not fully specified; thiolactone ring Cys4-Val8 (Cys side chain to C-terminal carboxyl)
B22: 11-mer (peptide)
peptide: SSMSKACFMFV
modifications: not fully specified; thiolactone ring Cys7-Val11 (Cys side chain to C-terminal carboxyl)
B23: 15-mer (peptide)
peptide: KVADSSMSKACFMFV
modifications: not fully specified; thiolactone ring Cys11-Val15 (Cys side chain to C-terminal carboxyl)

The first assay deals with T1, L. monocytogenes AgrC (Listeria monocytogenes (EGD-e)). Description: cell-based or functional assay.
B1: the “EC50 (agr-GFP reporter, ΔagrD strain)” value came to 185 nM; the “IC50 (agr-GFP reporter, wild-type strain)” value (“IC50” for short) was 359 nM; the “Max Activation Observed (agr-GFP reporter, ΔagrD strain)” value was 64.8%; the “Max Inhibition Observed (agr-GFP reporter, wild-type strain)” value (“Max Inhibition Observed” for short) came to 51.8%.
As to B2, the “EC50 (agr-GFP reporter, ΔagrD strain)” value was 8.29 nM; the “Max Activation Observed (agr-GFP reporter, ΔagrD strain)” value turned out to be 71.9%; the “Max Inhibition Observed” value was 18.5%.
In the case of B3, the “IC50” value amounted to 1290 nM; the “Max Activation Observed (agr-GFP reporter, ΔagrD strain)” value turned out to be 7.89%; the “Max Inhibition Observed” value amounted to 88.9%.
For B4, the “IC50” value is 3800 nM; the “Max Activation Observed (agr-GFP reporter, ΔagrD strain)” value amounted to 7.08%; the “Max Inhibition Observed” value amounted to 49.3%.

A further assay concerns the target T1, L. monocytogenes AgrC. Description: cell-based or functional assay. This is another data set of the same source.
Take B5: the “Max Activation (agr-GFP reporter, ΔagrD strain)” value was determined as 12.2% and the “Max Inhibition (agr-GFP reporter, wild-type strain)” value is 1.29%.
For B6 the same measures were 8.45% and 0%.
For B7 the same measures were 8.73% and 0%.
The corresponding values for B8 are 8.65% and 0%.
With B9, the “Max Activation (agr-GFP reporter, ΔagrD strain)” value is 9.81% and the “Max Inhibition (agr-GFP reporter, wild-type strain)” value stood at 8.56%.
The corresponding values for B10 are 12% and 0%.
For B11 the same measures were 12.1% and 0.06%.
The corresponding values for B12 are 12.3% and 5.87%.
Consider B13, for which the “Max Activation (agr-GFP reporter, ΔagrD strain)” value was determined as 11.3% and the “Max Inhibition (agr-GFP reporter, wild-type strain)” value stood at 0.64%.
For B14 the same measures were 12.4% and 0%.

The target of the next assay is T1, L. monocytogenes AgrC. Description: cell-based or functional assay. The source holds these as a separate data set.
B15: the “EC50 (agr-GFP reporter, ΔagrD strain)” value was found to be 61.7 nM; the “IC50” value was determined as 866 nM; the “Max Activation (agr-GFP reporter, ΔagrD strain)” value turned out to be 64.6%; the “Max Inhibition (agr-GFP reporter, wild-type strain)” value turned out to be 38.3%.
For B16, the “EC50 (agr-GFP reporter, ΔagrD strain)” value is 39.9 nM; the “Max Activation (agr-GFP reporter, ΔagrD strain)” value was 105%; the “Max Inhibition (agr-GFP reporter, wild-type strain)” value was 0%.
For B17 the same measures were 29 nM, 108% and 0%.
For the molecule B18, the “EC50 (agr-GFP reporter, ΔagrD strain)” value was found to be 23.5 nM; the “IC50” value came out at 416 nM; the “Max Activation (agr-GFP reporter, ΔagrD strain)” value turned out to be 93.6%; the “Max Inhibition (agr-GFP reporter, wild-type strain)” value amounted to 8.89%.
For the molecule B19, the “EC50 (agr-GFP reporter, ΔagrD strain)” value is 43.4 nM; the “Max Activation (agr-GFP reporter, ΔagrD strain)” value stood at 116%; the “Max Inhibition (agr-GFP reporter, wild-type strain)” value came out at 0.26%.
For B20, the “EC50 (agr-GFP reporter, ΔagrD strain)” value amounted to 21.5 nM; the “Max Activation (agr-GFP reporter, ΔagrD strain)” value was determined as 110%; the “Max Inhibition (agr-GFP reporter, wild-type strain)” value came out at 0%.
Take B21: the “EC50 (agr-GFP reporter, ΔagrD strain)” value was determined as 68.6 nM; the “IC50” value is 842 nM; the “Max Activation (agr-GFP reporter, ΔagrD strain)” value is 71.5%; the “Max Inhibition (agr-GFP reporter, wild-type strain)” value turned out to be 29.4%.
Consider B22, for which the “EC50 (agr-GFP reporter, ΔagrD strain)” value was 14.3 nM; the “Max Activation (agr-GFP reporter, ΔagrD strain)” value was found to be 111%; the “Max Inhibition (agr-GFP reporter, wild-type strain)” value was 3.9%.
The corresponding values for B23 are 22.2 nM, 122% and 0.23%.
